The source of these data is patent publication US20180127503A1 (EUREKA THERAPEUTICS, published 2018).

For assay [1], the target named is T1, human ROR2 ECD-Fc fusion protein (human, UniProt Q01974 34-403).
T1 construct: Panning and phage ELISA antigen; also called human ROR2-ECD (phage ELISA); not shown: Fc part and any linker are not described
Put plainly: summary of the phage clone screening (ELISA). For orientation: An ELISA detects its analyte on a solid surface through an enzyme-linked reagent.

Assay [2] addresses T1, human ROR2 ECD-Fc fusion protein. Put plainly: phage ELISA on coated ROR2 ECD-Fc.
Assay [3] deals with T2, human ROR1 ECD-Fc fusion protein (human, UniProt Q01973 30-406).
T2 construct: not shown: Fc part and any linker are not described
T2 sequence (Q01973 30-406): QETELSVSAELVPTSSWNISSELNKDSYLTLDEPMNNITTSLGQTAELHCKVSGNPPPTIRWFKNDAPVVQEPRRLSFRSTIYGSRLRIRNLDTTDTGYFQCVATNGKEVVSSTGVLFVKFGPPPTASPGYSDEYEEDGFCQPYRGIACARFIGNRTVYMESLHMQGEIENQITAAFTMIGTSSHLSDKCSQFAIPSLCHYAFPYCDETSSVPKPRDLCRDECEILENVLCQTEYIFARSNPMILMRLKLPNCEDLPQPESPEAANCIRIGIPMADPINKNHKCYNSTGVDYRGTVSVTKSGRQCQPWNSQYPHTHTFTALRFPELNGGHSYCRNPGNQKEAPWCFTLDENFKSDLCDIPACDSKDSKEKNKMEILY
The assay can be described thus: summary of the phage clone screening (ELISA).

T1 sequence (Q01974 34-403): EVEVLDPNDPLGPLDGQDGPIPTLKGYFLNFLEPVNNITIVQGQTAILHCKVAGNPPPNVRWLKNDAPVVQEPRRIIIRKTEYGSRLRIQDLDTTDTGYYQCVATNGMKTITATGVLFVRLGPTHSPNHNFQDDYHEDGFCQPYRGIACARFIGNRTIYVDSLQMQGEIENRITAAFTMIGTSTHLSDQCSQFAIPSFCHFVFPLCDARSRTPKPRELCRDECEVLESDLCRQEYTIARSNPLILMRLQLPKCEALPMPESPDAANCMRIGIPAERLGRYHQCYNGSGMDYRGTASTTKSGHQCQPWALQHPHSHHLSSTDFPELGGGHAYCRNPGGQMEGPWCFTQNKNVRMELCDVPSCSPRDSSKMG

B1: ROR2 clone #093 scFv phage antibody (scFv, V domains shown)
VH: QMQLVQSGGGVVQPGRSLRLSCAASGFTFSNYDMHWVRRAPGKGLEWVAVISYDGSNNYYADSVKGRFTISRDNSKNTLYLQMNSLRAEDTAVYYCARSSAWVGGGFLSGTDDWGQGTLVTVSS
VL: EIVMTQSPATLSLSPGERATLSCGASQSVSSSYLAWYQQKPGLAPRLLIYDTSRRATGIPDRFSGSGSGTDFTLTISRLEPEDFAVYYCLHYGRSPPVTFGGGTKVEIKR
notes: also called clone #93; ROR2-93
On to B1, for which the binding result in assay [1] was “binds”.

B2: ROR2 clone #024 scFv phage antibody (scFv, V domains shown)
VH: EVQLVQSGAEVKKPGESLKISCKASGYSFSNYWIGWVRQMPGKGLEWMGIIYPDDSDTRYSPSVQGQVTISADKSISTAYLQWYSLKVADTAKYYCVRPRGAFDIWGQGTTVTVSS
VL: EIVMTQSPATLSVSPGESATLSCRASQGVGINLAWYQQRPGQPPRLLIYDASNRATGIPARFSGSGSGTDFTLTISSLQAEDVAVYYCQQYYSFPWTFGQGTKVEIKR
notes: also called clone #24; ROR2-24
Regarding B2, the binding result in assay [2] is given as “binds”.

B3: ROR2 clone #159 scFv phage antibody (scFv, V domains shown)
VH: QMQLVQSGAEVKKPGASVKVSCKASGYTFTSYYMHWVRQAPGQGLEWMGIINPSGGSTSYAQKFQGRVTMTRDTSTSTVYMELSSLRSEDTAVYYCARGGYTGWSPSDPWGQGTLVTVSS
VL: QSALTQPASVSGSPGQSITISCTGTSSDVGGYNYVSWYQQHPGKAPKFMIYDVSKRPSGVSNRFSGSKSGNTASLTISGLQAEDEADYYCGSFTSSITYVFGTGTKVTVLG
notes: also called ROR2-159
B3: the binding result in assay [3] and in assay [1] was “binds” in each case.

B4: ROR2 clone #084 scFv phage antibody (scFv, V domains shown)
VH: QVQLVESGGGLVQPGGSLRLSCAASGFTFSSYWMSWVRQAPGKGLEWVANIKQDGSEKYYVDSVRGRFTISRDNAKNSLYLQMNSLRAEDTAMYYCARGSFSYDSDLWGQGTLVTVSS
VL: DVVMTQSPLSLPVTLGQPASISCRSSQSLVHSDGNTYLNWFQQRPGQSPRRLIYKVSSRDSGVPDRFSGTGSGTDFTLKISRVEAEDVGVYYCMQTTHWPPTFGQGTKVEIKR
notes: also called clone #84; ROR2-84
Take B4: the binding result in assay [1] is given as “binds”.

B5: ROR2 clone #016 scFv phage antibody (scFv, V domains shown)
VH: EVQLVQSGAEVKKPGASVKVSCKASGYTFTDYYIHWVRQAPGQGLEWMGWMNPNSGNSVSAQKFQGRVTMTRDTSINTAYMELSSLTSDDTAVYYCARNSEWHPWGYYDYWGQGTLVTVSS
VL: SSELTQDPAVSVALGQTVRITCQGDSLRSYYASWYQQKPGQAPVLVIYGKNNRPSGIPDRFSGSSSGNTASLTITGAQAEDEADYYCNSRDSSGNHLVFGGGTKLTVLG
notes: also called clone #16; ROR2-16
As to B5, the binding result in assay [3] and in assay [1] was “binds” throughout.

B6: ROR2 clone #121 scFv phage antibody (scFv, V domains shown)
VH: QVQLVQSGGGLVQPGGSLRLSCAATGFTFSSYAMSWVRQAPGKGLEWVSVISGSGGSTYYADSVKGRFTISRDNSKNTLYLQMNSLRADDTAVYYCARHYYSSDSWGQGTLVTVSS
VL: SYVLTQPPSVSVSPGQTASVTCSGYRLREKYVSWYQQRPGHSPVLVIYEDTKRPSGIPERFSGSNSGDTATLTIRGTQAIDEADYYCQAWDSSVIFGGGTKLTVLG
notes: also called ROR2-121
Take B6: the binding result in assay [1] is reported as “binds”.

B7: ROR2 clone #173 scFv phage antibody (scFv, V domains shown)
VH: QVQLVQSGAEVKKPGASVKVSCKASGYTFTSYGISWVRQAPGQGLEWMGWISAYNGNTNYAQKLQGRVTMTTDTSTSTAYMELRSLRSDDTAVYYCARHLGPMGMYDWSFDKWGQGTLVTVSS
VL: QSVLTQPPSVSVAPGKTARITCGGDNIGRKSVHWYQQKPGQAPVLVIYYDSDRPSGIPERFSGSTSGNTATLTISRVEAGDEADYYCQVWDRSSDLYVFGTGTKVTVLG
notes: also called ROR2-173
Consider B7, for which the binding result in assay [1] is “binds”.

B8: ROR2 clone #096 scFv phage antibody (scFv, V domains shown)
VH: EVQLVQSGGGLVQPGGSLRLSCAASGFSLNDYYMDWVRQAPGEGLEWVGRIRDKAHGDTTEYIASVKDRFIVSRDDSKNSLYLQMNSLKTEDTAMYYCARWVDDYQGYWIWSYHDFWGQGTLVTVSS
VL: EIVLTQSPLSLPVTLGQPASISCRSSQSLAYSDGNTYLNWFHQRPGQSPRRLIYKVSKRDSGVPDRFSGSGSGTDFTLRISRVEAEDVGIYYCMQGTHWPHTFGPGTKVDIKR
notes: also called clone #96; ROR2-96
On to B8, for which the binding result in assay [1] is reported as “binds”.
